# Test results reported in the nanobody polyreactivity screen of Harvey et al. (2022).
# Assay: yeast display, Sf9 membrane polyspecificity reagent, FACS + sequencing; frameworks hold sequencing errors
# Procedure, shortened: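 Galactose induction of a Saccharomyces cerevisiae BJ5465 synthetic nanobody display library ran 36–48 hours. The cells were then stained for 1 hour at 4 °C with 10% biotinylated, detergent-solubilized Sf9 membrane reagent, pulled down on streptavidin microbeads and FACS-sorted into low and high (top ~1%) gates on expression and reagent-binding fluorescence. Labels for polyreactivity follow the gate of origin.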
row,Sequence,polyreactivity (PSR sort gate)
1,QVQLVESGGGLVQAGGSLRLSCAASGIILGVYAMGWYRQAPGKEREFVAAITSSGGSTYYADSVKGRFTISRDNAKNTVYLQMNSLKPEDTAVYYCAADFDTSVRLYGPTRYDYWGQGTQVTVSS,low polyreactivity
2,QVQLVESGGGLVQAGGSLRLSCASSGRIFGPNAMGWYRQAPGKERELVAAITSGGRTKYADSVKGRFTISRDNAKNTVYLQMNSLKPEDTAVYYCATTAQYYWGQGTQVTVSS,high polyreactivity
3,QVQLVESGGGLVQAGGSLRLSCAASGRLFTIYAMGGYTQAPGKERELVATISRRGGSTYYADSVKGRFTISRDNAKNTVYLQMNSLKPEDTAVYYCAKRQRSKAAVAGYVDATGEMDYWGQGTQVTVSS,high polyreactivity
4,QVQLVESGGGLVQAGGSLRLSCAASGSIFRYNAMGWYRQAPGKERELVAAITWSGGSTYYADSVKGRFTISRDNAKNSVYLQMNSLKPEDTAVYYCAASPYPHYRRYTGGFYYWGQGTQVTVSS,high polyreactivity
5,QVQLVESGGGLVQAGGSLRLSCAASGRTFPRYAMGWYRQAPGKERELVAAISRGGGTTYADSVKGRFTISRDNAKNTVYLQMNSLKPEDTAVYYCATRSPYSYPNLYYWGQGTQVTVSS,high polyreactivity
6,QVQLVESGGGLVQAGGSLRLSCAASGSIFSYYAMGWYRQAPGKERVLVAAIRRGGSTNYADSVKGRFTISRDNAKNTVYLQLNSLKPEDTAVYYCAASLGWRFYYWGQGTQVTVSS,high polyreactivity
7,QVQLVESGGGLVQAGGSLRLSCAASGSTFQTYAMGWYRQAPGKERELVAAISRRSGSTYYADSVKGRFTISRDNAKNTVYLQMNSLKPEDTAVYYCAARYVSRRFLGYYYWGQGTQVTVSS,high polyreactivity
8,QVQLVESGGGLVQAGGSLRLSCAASGFIFYAMGWYRQAPGKERELVAAITLSDGTTYYADSVKGRFTISRDNAKNTVYLQMNSLKPEDTAVYYCAAEYSVPYRGWDGYEYWGQGTQVTVSS,low polyreactivity
9,QVQLVESGGGLVQAGGSLRFSCAASGFIFYYYDMGWYRQAPGKERELVATISRGGSTYYADSVKGRFTISRDNAKNTVYLQMNSLKPEDTAVYYCAAYRSFGYRNWNRFDYWGQGTQVTVSS,high polyreactivity
10,QVQLVESGGGLVQAGGSLRLSCAASGSIFNGNAMGWYRQAPGKERELVAAISSGDSTNYADSVKGRFTISRDNAKNTVYLQMNSLKPEDTAVYYCNAVHRSIARGGGMDYWGQGTQVTVSS,low polyreactivity
11,QVQLVESGGGLVQAGGSLRLICAASGTNFVFNAIGWYRQAPGKERELVAINSGGSTYYADSVKGRFTNSRDNAKNTVFLQMNSLIPEDTAVYYCAKDRLRVWRFDYWGQGTQVTVST,low polyreactivity
12,QVQLVESGGGLGQAGGSLRLSCASSGFTFVPYAMVWYSPAPGKERELVAAIDFDDATTYYADSVKGRFTISRDNAKNTVYLQMNSMKPEDTALYYCAADGFYAPDDAPFYYWGQGTQVTVSS,high polyreactivity
13,QVQLQESRGGQVQEGGSLRLSCAASGNISPPADMGWYRQAPGKERELVASIGTGGTTNYADSVKGRFTISRDNAKNTVYLQMKSLKPDDTAVYYCAAVRFEYNPYDYWGQGTQVTVSS,low polyreactivity
14,QVQLHESGGGLVQAGGSLRRSCAASGTISYAGPMGWYRQAPGKEREFVAGIGVGSNTNYADSVKGRYTIIRDNAKNTVYLQMNSLKPEDTAVYYCAVGGYAPLGRPYWGQGTQVTVSS,low polyreactivity
15,QVQLVESGGGLVQAGGSLRFSCAASGSTFVYYGMGWDRQAPGKERELVAAITDIGDSTNYADSVKGRFTISRDNAKNTVYLQMNSLKPEDTAVYYCAASGRSVPYYGSPRNDYWGQGTQVTVSS,low polyreactivity
16,QVQLVESGGGLVQAGGSLRLSCAASGRNISYNAMGGYRQAPGKERELVAAISWGGGSTYYADSVMGRFTISRDNAKNTVFLHMNSLKQDDTAVYYCAKGWYRIKRNDYWGQGTQVTVSS,low polyreactivity
17,QVQLVESGGGLVQAGGSLRLRCAASGFTIGANTMGWYRQAPGKEWELVASISASGGSTYYADSVKGRVTISRDNAKNTVYVQMNSLKPDDTAGYYCAARRYPGRTATYYSWGQGTQVTVSS,high polyreactivity
18,QVQLVESGGGLVQAGVSLRLSCAASGRIFPTNAMGWYRQAPGKERELVAAIPVSGGSTYYADSVKGRFTISRDNAKNTVYLQMNSLKPEDTAVYYCAVDDRASVGSRLDHWGQGTQVTVSS,low polyreactivity
19,QVQLVESGGGLVQAGGSLRLSCAASGITFYDYAMGWYRQAPGKERELVAAISGGGITYYADSVKGRFTISRDNAKNTVYLQMNSLKPEDTAVYYCAADAYGYGGDSWGQGTQVTVSS,low polyreactivity
20,QVQLVESGGGLVQAGGSLRLSCAASGSTFDIYAMGWYRQAPGKERELVAAITGSSGSTYYADSVKGRFTISRDNAKNTVYLQMNSLKPEDTAVYYCAADIVRVSTVPSLVYSYYWGQGTQVTVSS,low polyreactivity
21,EVQLVESGGGLVQPGGSLRLSCAASGYIYSRYRMGWYRQAPGKGREFVAAISGGSSTNYADSVKGRFTISRDNSKYTVYLQMNSLRADDTALYYCAAYKIDSDPRVYWGQGTQVTVSS,low polyreactivity
22,QVQLVESGGGLVQAGGSLRLSCAASGRTFALYTMGWYRQAPGKERELVAAINWSGTSTYYADSVKGRFTISRDTAKNTVYLQMNSLKPEDTAVYYCNARGQYNRLMDYWGQGTKVTVSS,low polyreactivity

row,Sequence,polyreactivity (PSR sort gate)
1,QVQLVESGGGLVQAGGSLRLSCAASGSTFYNYAMGWYRQAPGKERELVAAISSSGGRTYYADSVKGRFTISRDNAKNTVYLQMNSLKPEDTAVYYCAASGRKNGMNYWGQGTQVTVSS,high polyreactivity
2,QVQLVESGGGLVHAGGSLRLSCAASGSIFPVNAMGWYRQAPGKERELVAAITSSGGTTYYADSVKGRFTISRDYAKITVYLLMNSLKPVDTAVYYCAADVDVSYWRMEYWGQGTQVTVSS,high polyreactivity
3,QVQLVESGGGLVQAGGSLRLSCAASGRTFRWYAMGWYRQAPGKERELVAAISSSGTRTYYADSVKGRFTISRDNAKNTVYLQMNSLKPEDTAVYYCAATWRVGYDYWGQGTQVTVSS,high polyreactivity
4,QVQLVESGGGLVQAGGSLRLSCAASGSILVPNAMGWYRQAPGKERELVAGISANGGSTYYADSVKGRFTISRDNANNTVYLQMNSLKPEDTAVYYCNARLYWDWYGDDYWVQGTQVTVSS,low polyreactivity
5,QVQLVESGGGLVQAGGSLRLSCAASGSIFRGYTMGWYRQAHGKERELVAAITSGDSTNYADSVKGRFTISRDNAKNTVYLQMKSLKPEDTAVYSCAAVTRFYTKYYWGQGTQVTVSS,high polyreactivity
6,QVQLVESGGGLVQAGGSLRLSCAASGSTYNINAMGWYRQAPGKERELVAAISWSGGSTYYADSVKGRFTISRDNAKNTVYLQMNSLKPEDTAVYYCNALWVWYRGSSVRWVGGYDYWGQGTQVTVSS,high polyreactivity
7,QDQLVESGGGLVQAGGSLRLSCAASGHIFPYNAMGWYRQAPGKEREIVAASSFRGGSTYYADSVKGRFTISRDNAKNTVYLQMNSLKPEDTAVDYCAKRSYPWGQGTQVTVSS,low polyreactivity
8,QVQLVESGGGLVQAGGSLRLSCAASGLIFRYYCMGWSRQAPRKERELVATINRSGGRTYYADSVKGRFTISRDNAKNTDSLQMNSQKRDETAVYYCAALPEVYWIYGPQMDYWGQGTQVNVSS,high polyreactivity
9,QVQLVESGGGLVQAGGSLRLSCAASGYTFPSYAMGWYRQAPGKERELVAVITIGGTYYADSVKGRFTISRDNAKNTVYLQMNSLKPEDTAVYYCAADWAWDYYRGFDYWGQGTQVTVSS,low polyreactivity
10,QVHLVESGGGLVQAGGSLRLSCAASGSISVANAMGWYRQAPGKERELVAAITDSGDDTYYADSVKGRFTISRDNAKNTVYLQMNSLKPEDTAVYYCAVEAWSVPPYDYWGQGTQVTVSS,low polyreactivity
11,QDQLVESGGGLVQAGGSLRLTCAASGSIIVRYAMGWYRQAPGKERELVASISKRGGSTYYADSVKGRFTISRDNAKNTVYLQMNSLKPEDTAVYYCAAVGYYLVKFDYWGQGTQVTVSS,high polyreactivity
12,QVQLVESGGGLVPAGGSLRLSCAASGRTFGYYAMGWYRPAPGKERELVAAITSNGGSTYYADSVKGRFTISRDNAKNTVYLQMNSLKPEDTAVYYCNTGRRNRLYDYDYWGQGTQVTVSS,high polyreactivity
13,QVQLVESGGGLLQAGGRLRLSCAASVSIFTRYDMGWYRQAPGKEREFVAAISRGGGSTYYADSVKVRFTISLDNAKNTVYLQMISLKPENTAVYYCAPGVARYVKTASDYWGHGTQVTVSS,high polyreactivity
14,QVQLVESGGGLVQAGGSLRLSCAASGSTFDSYAMGWYRQAPGKEGELVAAITGGGDTNYADSVKGRFTISRDNAKNTVYLQMNSLKPEDTAVYYCAAYQRRGNYQMDLWGQGTQVTVSS,low polyreactivity
15,QVQLVESGGGLVQAGGSLRLSCAASGFTFYSYVMGWYRQAPGKERELVAAISWSGGRTNYADSVKGRFTISRDNAKNTVYLQMNSLKPEDTAVYYCNAPFRLRYRVDYWGQVTQVTVSS,high polyreactivity
16,QVQLVESGGGLVQAGGSLRLSCAASGGTFQGNAMGWYRQAPGKEREFVATITRGGGSTYYADSVKGRFTISRDNAKNTVYLQMNSLKPEDTAVYYCNAKPSYYQRYNYWGQGTQVTVSS,high polyreactivity
17,QVQLVESGAGLVQAGGSLRLSCAASGRNFGTYAMGWYTQAPGTERELVAGINGSGGSTYYADSVKGRFTISRDNAKNTVFLQMNSLKPEDTAVYYCAKYNWYRAWRYGYWGQGTQVTVSS,high polyreactivity
18,QDQLVESGGGLVQAGGSLRLSCAASGRTFPPYGMGWSRQAPGKERELVAAISKSSGSTNYADSVKGRFTISRDNAKNTVYLQMNSLKPEDTAVYYFNVDLYRWSKLAGAYRMDYWGQGTQVTVSS,low polyreactivity
19,QVQLLESWGGLVQAGGSLRLSCAASGFIFRGYAMGWYRQAPGKDRELVAAISTGGGRTYYADSVKGRFTISRDNAKNTVYLQMNSLKPDDTAVYYCIRRSYTQVLMDYWGQGTQVTVSS,high polyreactivity
20,QVQLVESGGGLVQAGGSLRLSCAASGSTFKSYAMGWYRQAPGKERELVAAITHRGSTYYADSVKGRFTISRDNAKNTVYLQMNSLKPEDTAVYYCAASLRAPSLGHYYYWGQGTQVTVSS,high polyreactivity
21,QLQLGESGGGLVQAGGSLRLSCAASGRTFKDYAMGWYREAPGKERELVAAISWSGGDTYYADSVKGRFTISRDNAKNTVYLQMNSLKPEDTAVYYCNADPSGVFFYSLEFEYWGQGTQVTVSS,low polyreactivity
